For experiment [1], the target named is T1, pyroglutamated human Aβ3-11 with the addition of a C-terminal cysteine residue, pE-FRHDSGYE-C (human, not fully specified).
T1 construct: The range 3-11 counts on Aβ, not on APP; also called human AβpE3; human AβpE3-11-C
T1 peptide: [pGlu]FRHDSGYEC
As to the kind of experiment: SPR (BIAcore 3000), peptide immobilised on CM5 chip. As to the method:
(§1) Affinity measurements using SPR technology: Binding affinity of anti-Aβ antibodies was determined using BIAcore 3000 (Biacore, Upsula, Sweden). Human and murine pyroglutaminyl and unmodified Aβ peptides with a C-terminal Cystein were immobilized on a CM5 chip using the 2-(2-pyridinyldithio) ethaneamine hydrochloride (PDEA) coupling technology (GE healthcare).
(Surface plasmon resonance follows binding to a sensor surface in real time, without labels.)

Experiment [2] has as its target T2, pyroglutamated murine Aβ3-11 with the addition of a C-terminal cysteine residue, pE-FGHDSGFE-C (murine, not fully specified).
T2 construct: The range 3-11 counts on Aβ, not on APP; also called murine AβpE3; murine AβpE3-11-C
T2 peptide: [pGlu]FGHDSGFEC
The experiment is described as above. As to the method:
as §1

Where no end group is shown, it is not given here. [ ]: non-standard residue; d: D form. pGlu = O=C1CC[C@@H](C(=O)O)N1

B1: monoclonal antibody 1G11 (antibody, V domains shown)
VH: EVKLEESGGGLVQPGGSMKLSCTASGLTLSDAWMNWVRQSPEKGLEWVAEIRSKAYKHATYYAESVKGRFTISRDDSKSCIYLQMNTLRAEDTGIYYCTRHGSWGPGTLVTVSA
VL: DILMSQSPSSMSVSLGDRVSITCRASQGISSKMGWLQQKPGKSSKGLIYHGTKLEDGVPSRFSGSGSGAEYSLTISSLESEDFGDYYCVQYAQFPYTFGGGTKLEIK
notes: Mouse hybridoma monoclonal antibody directed against murine AβpE3
As for B1, the binding result in experiment [1] was “no binding”.

B2: monoclonal antibody 2E4 (antibody, V domains shown)
VH: EVKLEESGGGLVQPGGSMKLSCTASGITLNDAWMTWVRQSPEKGLEWVGEIRNKANNHATNYAESVKGRFSISRDDSKGIVYLQMNSLRAEDTGNYYCTRHSYWGPGTLVTVSA
VL: DILMTQSPSSMSVSLGDTVSITCHASQGIRNNIGWLQEKPGKSFKGLIYHGTKLEDGIPSRFSGSGSGADYSLTISSLESEDVADYYCVQYDQFPYTFGGGTKLEIK
notes: as for B1
As for B2, the binding result in experiment [1] is listed as “no binding”.

B3: monoclonal antibody 5C9 (antibody, V domains shown)
VH: QIQLQQSGPELVKPGAAVKISCKASGYTFTDYYLNWVKQKPGQGLEWIGWIYPGSGNVKYNEKFKGKATLTADTSSNTAHMQLSSLTSEDTAVYFCTREGLIVYWGQGTLVTVSA
VL: DVVLTQTPFTLSVTIGQPASISCKSSQSLLHSNGESYLNWLFQRPGQSPKRLIYAVSKLDSGVPDRFTGSGSGTDFTLKISRVEAEDLGVYYCVQGTHFPFTFGGGTKLEIK
notes: also called LuAb1h
Consider B3, for which the binding result in experiment [2] is “no binding”.

The values are drawn from patent publication US20170022268A1 (H LUNDBECK A S, published 2017).
